Data on four molecules can be found in patent US20050037420A1 (published 2005).

Numbering of substitutions follows the chain as printed.

First the molecules themselves.
B1: scFv N3 (scFv)
scFv: AVTLDESGGGLQTPGGGLSLVCKASGFSFSSYSMGWVRQAPGKGLEWVAGIGSSVIRTYYAPAVKGRATIPRDNGQSTVRLQLNDLRAEDTGTYYCAKESGSGKWFSIGQIDAWGHGTEVTVSSGSTSGSGKPGPGEGSTKGAPALTQPSSVSANPGGTVQITCSGGSGSYGWFQQKSPGSAPVTVIYSSDKRPSDIPSRFSGSKSGSTGTLTITGVQADDEAVYFCGSADSSHLGIFGAGTTLTVLGQP
notes: Soluble scFv, mini-scale (pHEN4II, c-myc tag) or large-scale (pTMZ1, IMAC purified) from E. coli; also called clone N3; not shown: C-terminal c-myc and his-6 tags from the expression vector
B2: scFv N10 (scFv)
scFv: B1 scFv with S170N
notes: Soluble scFv, mini-scale (pHEN4II, c-myc tag) or large-scale (pTMZ1, IMAC purified) from E. coli; also called clone N10; not shown: C-terminal c-myc and his-6 tags from the expression vector
B3: scFv N12 (scFv)
scFv: AVTLDESGGGLQTPGGGLSLVCKASGFDFSSYDMVWVRQAPGKGLEWVAGISSGSGPNYGAAVKGRATISRDNGQSTVRLQLNNLRAEDTATYYCAKNEGADWCGHYYCSVAYIDAWGHGTEVTVSSGSTSGSGKPGPGEGSTKGAPALTQPSSVSANPGETVKITCSGGSGDHYGWFQQKSPGSAPVTVIYNNDNRPSDIPSRFSGSKSGSTHTLTITGVQVEDEAVYFCGNRDSSAGIFGAGTTLTVLGQP
notes: Soluble scFv, mini-scale (pHEN4II, c-myc tag) or large-scale (pTMZ1, IMAC purified) from E. coli; also called clone N12; not shown: C-terminal c-myc and his-6 tags from the expression vector
B4: scFv N5 (scFv)
scFv: B3 scFv with G56V, N193K, D195E
notes: Soluble scFv, mini-scale (pHEN4II, c-myc tag) or large-scale (pTMZ1, IMAC purified) from E. coli; also called clone N5; not shown: C-terminal c-myc and his-6 tags from the expression vector

The target of this assay is T1, full-length NSM protein (putative movement protein of Tomato Spotted Wilt Virus) obtained from the IMPACT … (Tomato Spotted Wilt Virus, UniProt P36292 1-301).
T1 construct: mature; also called soluble NSM protein
T1 sequence (looked up): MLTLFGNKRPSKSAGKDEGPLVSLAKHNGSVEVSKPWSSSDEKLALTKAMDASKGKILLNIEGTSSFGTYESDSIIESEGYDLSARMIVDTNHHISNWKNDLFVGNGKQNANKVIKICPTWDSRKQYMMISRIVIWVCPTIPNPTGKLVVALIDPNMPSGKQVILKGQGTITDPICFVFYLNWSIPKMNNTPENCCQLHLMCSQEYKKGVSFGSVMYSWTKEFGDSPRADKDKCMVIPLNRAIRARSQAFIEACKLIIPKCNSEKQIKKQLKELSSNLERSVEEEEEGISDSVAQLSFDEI
Briefly: ELISA, full-length NSM coated, mini-scale expressed soluble scFv; vector control OD 0.02. In general terms: In an ELISA, binding on a coated surface is turned into a signal by an enzyme label.
Turning to B1, the OD410 nm is 0.2 OD.

Molecule B2 displayed an OD410 nm of 0.2 OD.

Molecule B3 had an OD410 nm of 0.2 OD.

For B4, the OD410 nm was 0.2 OD.
